Experiments:
4H797-bH = biological target: T1, 4H797-bH; test: two-hybrid library CCNG1;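 note: natural log of median RNA to DNA barcode read ratio; higher means stronger binding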
T1 chain: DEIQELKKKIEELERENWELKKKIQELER

4H72-bH = biological target: T2, 4H72-bH; test: two-hybrid library CCNG1;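 note: natural log of median RNA to DNA barcode read ratio; higher means stronger binding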
T2 chain: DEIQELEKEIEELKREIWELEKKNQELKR

4H4001-bH = biological target: T3, 4H4001-bH; test: two-hybrid library CCNG1;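 note: natural log of median RNA to DNA barcode read ratio; higher means stronger binding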
T3 chain: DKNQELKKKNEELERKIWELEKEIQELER

4H687-bH = biological target: T4, 4H687-bH; test: two-hybrid library CCNG1;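 note: natural log of median RNA to DNA barcode read ratio; higher means stronger binding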
T4 chain: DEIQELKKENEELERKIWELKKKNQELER

4H338-bH = biological target: T5, 4H338-bH; test: two-hybrid library CCNG1;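 note: natural log of median RNA to DNA barcode read ratio; higher means stronger binding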
T5 chain: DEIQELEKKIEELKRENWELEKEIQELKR

4H918-bH = biological target: T6, 4H918-bH; test: two-hybrid library CCNG1;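 note: natural log of median RNA to DNA barcode read ratio; higher means stronger binding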
T6 chain: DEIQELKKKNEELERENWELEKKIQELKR

4H3855-bH = biological target: T7, 4H3855-bH; test: two-hybrid library CCNG1
T7 chain: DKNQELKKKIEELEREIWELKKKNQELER

4H717-bH = biological target: T8, 4H717-bH; test: two-hybrid library CCNG1
T8 chain: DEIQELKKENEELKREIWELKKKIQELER

4H883-bH = biological target: T9, 4H883-bH; test: two-hybrid library CCNG1
T9 chain: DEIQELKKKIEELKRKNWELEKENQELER

4H967-bH = biological target: T10, 4H967-bH; test: two-hybrid library CCNG1
T10 chain: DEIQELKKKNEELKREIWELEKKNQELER

4H454-bH = biological target: T11, 4H454-bH; test: two-hybrid library CCNG1
T11 chain: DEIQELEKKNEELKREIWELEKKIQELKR

4H953-bH = biological target: T12, 4H953-bH; test: two-hybrid library CCNG1
T12 chain: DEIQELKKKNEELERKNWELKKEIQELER

4H568-bH = biological target: T13, 4H568-bH; test: two-hybrid library CCNG1
T13 chain: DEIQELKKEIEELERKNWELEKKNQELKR

4H908-bH = biological target: T14, 4H908-bH; test: two-hybrid library CCNG1
T14 chain: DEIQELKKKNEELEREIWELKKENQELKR

4H3427-bH = biological target: T15, 4H3427-bH; test: two-hybrid library CCNG1
T15 chain: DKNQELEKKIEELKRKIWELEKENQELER

4H3926-bA = biological target: T16, 4H3926-bA; test: two-hybrid library CCNG1
T16 chain: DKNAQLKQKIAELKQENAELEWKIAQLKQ

4H607-bH = biological target: T17, 4H607-bH; test: two-hybrid library CCNG1
T17 chain: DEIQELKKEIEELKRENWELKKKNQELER

4H3782-bH = biological target: T18, 4H3782-bH; test: two-hybrid library CCNG1
T18 chain: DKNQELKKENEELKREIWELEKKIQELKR

4H754-bH = biological target: T19, 4H754-bH; test: two-hybrid library CCNG1
T19 chain: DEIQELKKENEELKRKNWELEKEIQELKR

4H40-bH = biological target: T20, 4H40-bH; test: two-hybrid library CCNG1
T20 chain: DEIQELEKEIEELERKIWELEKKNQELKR

4H348-bH = biological target: T21, 4H348-bH; test: two-hybrid library CCNG1
T21 chain: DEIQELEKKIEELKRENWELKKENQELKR

4H477-bH = biological target: T22, 4H477-bH; test: two-hybrid library CCNG1
T22 chain: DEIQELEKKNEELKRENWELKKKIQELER

4H741-bH = biological target: T23, 4H741-bH; test: two-hybrid library CCNG1
T23 chain: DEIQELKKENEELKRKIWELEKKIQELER

4H492-bH = biological target: T24, 4H492-bH; test: two-hybrid library CCNG1
T24 chain: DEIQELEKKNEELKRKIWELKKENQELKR

4H3112-AA = biological target: T25, 4H3112-AA; test: two-hybrid library CCmax; conditions: mean of both orientations
T25 chain: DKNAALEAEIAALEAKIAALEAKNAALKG

4H881-AA = biological target: T26, 4H881-AA; test: two-hybrid library CCmax; conditions: mean of both orientations
T26 chain: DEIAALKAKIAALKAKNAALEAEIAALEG

4H3606-AA = biological target: T27, 4H3606-AA; test: two-hybrid library CCmax; conditions: mean of both orientations
T27 chain: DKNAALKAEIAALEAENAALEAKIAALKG

4H2393-AA = biological target: T28, 4H2393-AA; test: two-hybrid library CCmax
T28 chain: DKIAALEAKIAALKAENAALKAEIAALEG

4H678-AA = biological target: T29, 4H678-AA; test: two-hybrid library CCmax; conditions: mean of both orientations
T29 chain: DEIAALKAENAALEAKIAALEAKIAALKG

4H3921-AA = biological target: T30, 4H3921-AA; test: two-hybrid library CCmax; conditions: mean of both orientations
T30 chain: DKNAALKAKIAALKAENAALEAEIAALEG

4H2754-AA = biological target: T31, 4H2754-AA; test: two-hybrid library CCmax; conditions: mean of both orientations
T31 chain: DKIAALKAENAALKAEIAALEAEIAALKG

4H794-AA = biological target: T32, 4H794-AA; test: two-hybrid library CCmax; conditions: mean of both orientations
T32 chain: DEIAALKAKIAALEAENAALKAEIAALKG

4H317-AA = biological target: T33, 4H317-AA; test: two-hybrid library CCmax; conditions: mean of both orientations
T33 chain: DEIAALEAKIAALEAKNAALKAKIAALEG

4H2505-AA = biological target: T34, 4H2505-AA; test: two-hybrid library CCmax; conditions: mean of both orientations
T34 chain: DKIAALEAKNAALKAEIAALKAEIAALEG

4H3844-AA = biological target: T35, 4H3844-AA; test: two-hybrid library CCmax; conditions: mean of both orientations
T35 chain: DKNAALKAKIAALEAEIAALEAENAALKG

4H717-AA = biological target: T36, 4H717-AA; test: two-hybrid library CCmax; conditions: mean of both orientations
T36 chain: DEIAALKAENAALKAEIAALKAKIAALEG

4H3627-AA = biological target: T37, 4H3627-AA; test: two-hybrid library CCmax; conditions: mean of both orientations
T37 chain: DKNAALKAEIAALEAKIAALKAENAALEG

4H2944-AA = biological target: T38, 4H2944-AA; test: two-hybrid library CCmax; conditions: mean of both orientations
T38 chain: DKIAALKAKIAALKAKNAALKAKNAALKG

4H2949-AA = biological target: T39, 4H2949-AA; test: two-hybrid library CCmax; conditions: mean of both orientations
T39 chain: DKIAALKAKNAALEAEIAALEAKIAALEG

4H335-AA = biological target: T40, 4H335-AA; test: two-hybrid library CCmax; conditions: mean of both orientations
T40 chain: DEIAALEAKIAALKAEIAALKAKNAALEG

4H2617-AA = biological target: T41, 4H2617-AA; test: two-hybrid library CCmax; conditions: mean of both orientations
T41 chain: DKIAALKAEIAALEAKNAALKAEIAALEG

4H605-AA = biological target: T42, 4H605-AA; test: two-hybrid library CCmax; conditions: mean of both orientations
T42 chain: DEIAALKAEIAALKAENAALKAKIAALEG

4H2575-AA = biological target: T43, 4H2575-AA; test: two-hybrid library CCmax; conditions: mean of both orientations
T43 chain: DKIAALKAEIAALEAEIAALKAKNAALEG

4H2883-AA = biological target: T44, 4H2883-AA; test: two-hybrid library CCmax; conditions: mean of both orientations
T44 chain: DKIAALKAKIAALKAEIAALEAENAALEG

4H780-AA = biological target: T45, 4H780-AA; test: two-hybrid library CCmax
T45 chain: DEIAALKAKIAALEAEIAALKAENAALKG

4H454-AA = biological target: T46, 4H454-AA; test: two-hybrid library CCmax; conditions: mean of both orientations
T46 chain: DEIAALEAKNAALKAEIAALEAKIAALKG

4H2277-AA = biological target: T47, 4H2277-AA; test: two-hybrid library CCmax
T47 chain: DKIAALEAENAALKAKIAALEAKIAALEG

4H234-AA = biological target: T48, 4H234-AA; test: two-hybrid library CCmax; conditions: mean of both orientations
T48 chain: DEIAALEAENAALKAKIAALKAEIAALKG

4H2354-AA = biological target: T49, 4H2354-AA; test: two-hybrid library CCmax; conditions: mean of both orientations
T49 chain: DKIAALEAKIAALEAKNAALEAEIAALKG

4H2466-AA = biological target: T50, 4H2466-AA; test: two-hybrid library CCmax; conditions: mean of both orientations
T50 chain: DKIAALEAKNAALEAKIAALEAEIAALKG

4H2729-AA = biological target: T51, 4H2729-AA; test: two-hybrid library CCmax; conditions: mean of both orientations
T51 chain: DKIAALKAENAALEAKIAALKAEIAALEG

4H2642-AA = biological target: T52, 4H2642-AA; test: two-hybrid library CCmax; conditions: mean of both orientations
T52 chain: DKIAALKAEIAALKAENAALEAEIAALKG

4H429-AA = biological target: T53, 4H429-AA; test: two-hybrid library CCmax; conditions: mean of both orientations
T53 chain: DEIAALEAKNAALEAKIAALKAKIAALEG

4H3427-AA = biological target: T54, 4H3427-AA; test: two-hybrid library CCmax; conditions: mean of both orientations
T54 chain: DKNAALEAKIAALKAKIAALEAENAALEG

4H48-AA = biological target: T55, 4H48-AA; test: two-hybrid library CCmax; conditions: mean of both orientations
T55 chain: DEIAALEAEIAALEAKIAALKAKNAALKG

4H566-AA = biological target: T56, 4H566-AA; test: two-hybrid library CCmax; conditions: mean of both orientations
T56 chain: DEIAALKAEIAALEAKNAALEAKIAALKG

4H993-AA = biological target: T57, 4H993-AA; test: two-hybrid library CCmax; conditions: mean of both orientations
T57 chain: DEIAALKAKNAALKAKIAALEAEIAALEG

4H342-AA = biological target: T58, 4H342-AA; test: two-hybrid library CCmax; conditions: mean of both orientations
T58 chain: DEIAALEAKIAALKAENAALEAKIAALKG

4H2837-AA = biological target: T59, 4H2837-AA; test: two-hybrid library CCmax; conditions: mean of both orientations
T59 chain: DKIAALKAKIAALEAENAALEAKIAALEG

4H3343-AA = biological target: T60, 4H3343-AA; test: two-hybrid library CCmax; conditions: mean of both orientations
T60 chain: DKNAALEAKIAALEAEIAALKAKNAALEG

4H3655-AA = biological target: T61, 4H3655-AA; test: two-hybrid library CCmax; conditions: mean of both orientations
T61 chain: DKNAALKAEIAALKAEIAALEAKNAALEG

4H906-AA = biological target: T62, 4H906-AA; test: two-hybrid library CCmax; conditions: mean of both orientations
T62 chain: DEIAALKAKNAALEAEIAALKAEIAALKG

DEIQELEKKIEELKRENWELEKEIQELKR [4H338-bH]
interaction score (4H797-bH): -0.318 | interaction score (4H72-bH): -1.44 | interaction score (4H4001-bH): 0.346 | interaction score (4H687-bH): -0.366 | interaction score (4H338-bH): 1.76 | interaction score (4H918-bH): -0.137 | interaction score (4H3855-bH): 0.141 | interaction score (4H717-bH): 0.186 | interaction score (4H883-bH): 0.0489 | interaction score (4H967-bH): 0.908 | interaction score (4H454-bH): 1.38 | interaction score (4H953-bH): 1.25 | interaction score (4H568-bH): 0.785 | interaction score (4H908-bH): -3.02 | interaction score (4H3427-bH): 0.373 | interaction score (4H3926-bA): 1.81 | interaction score (4H607-bH): 0.393 | interaction score (4H3782-bH): -0.321 | interaction score (4H754-bH): 0.366

DEIQELEKKIEELKRENWELKKENQELKR [4H348-bH]
interaction score (4H40-bH): -0.14 | interaction score (4H348-bH): 0.666 | interaction score (4H477-bH): 0.107 | interaction score (4H741-bH): 1.04 | interaction score (4H492-bH): -0.683

DKIAALEAENAALKAKIAALEAKIAALEG [4H2277-AA]
interaction score (4H3112-AA): -1.43 | interaction score (4H881-AA): -1.05 | interaction score (4H3606-AA): -1.85 | interaction score (4H2393-AA): -1.39 | interaction score (4H678-AA): 0.351 | interaction score (4H3921-AA): -1.56 | interaction score (4H2754-AA): 0.512 | interaction score (4H794-AA): -1.24 | interaction score (4H317-AA): -1.02 | interaction score (4H2505-AA): -0.635 | interaction score (4H3844-AA): -1.39 | interaction score (4H717-AA): -0.927 | interaction score (4H3627-AA): -1.28 | interaction score (4H2944-AA): -1.56 | interaction score (4H2949-AA): 0.749 | interaction score (4H335-AA): -1.2 | interaction score (4H2617-AA): -1.68 | interaction score (4H605-AA): -1.38 | interaction score (4H2575-AA): -1.59 | interaction score (4H2883-AA): -1.6 | interaction score (4H780-AA): -1.36 | interaction score (4H454-AA): 1.29 | interaction score (4H2277-AA): 1.95 | interaction score (4H234-AA): -0.0407 | interaction score (4H2354-AA): -1.26 | interaction score (4H2466-AA): -1.07 | interaction score (4H2729-AA): 0.856 | interaction score (4H2642-AA): -0.59 | interaction score (4H429-AA): -0.713 | interaction score (4H3427-AA): -1.51 | interaction score (4H48-AA): -1.36 | interaction score (4H566-AA): -0.827 | interaction score (4H993-AA): 0.398 | interaction score (4H342-AA): -0.907 | interaction score (4H2837-AA): -1.08 | interaction score (4H3343-AA): -1.26 | interaction score (4H3655-AA): -1.32 | interaction score (4H906-AA): -1.51

Source: PMC10397247
